The text below walks through data of IntAct's records for PubMed 24325460.

B1: Isocitrate dehydrogenase [NADP] (Bacillus subtilis), P39126 (parent)
chain: MAQGEKITVSNGVLNVPNNPIIPFIEGDGTGPDIWNAASKVLEAAVEKAYKGEKKITWKEVYAGEKAYNKTGEWLPAETLDVIREYFIAIKGPLTTPVGGGIRSLNVALRQELDLFVCLRPVRYFTGVPSPVKRPEDTDMVIFRENTEDIYAGIEYAKGSEEVQKLISFLQNELNVNKIRFPETSGIGIKPVSEEGTSRLVRAAIDYAIEHGRKSVTLVHKGNIMKFTEGAFKNWGYELAEKEYGDKVFTWAQYDRIAEEQGKDAANKAQSEAEAAGKIIIKDSIADIFLQQILTRPNEFDVVATMNLNGDYISDALAAQVGGIGIAPGANINYETGHAIFEATHGTAPKYAGLDKVNPSSVILSGVLLLEHLGWNEAADLVIKSMEKTIASKVVTYDFARLMDGATEVKCSEFGEELIKNMD
partner: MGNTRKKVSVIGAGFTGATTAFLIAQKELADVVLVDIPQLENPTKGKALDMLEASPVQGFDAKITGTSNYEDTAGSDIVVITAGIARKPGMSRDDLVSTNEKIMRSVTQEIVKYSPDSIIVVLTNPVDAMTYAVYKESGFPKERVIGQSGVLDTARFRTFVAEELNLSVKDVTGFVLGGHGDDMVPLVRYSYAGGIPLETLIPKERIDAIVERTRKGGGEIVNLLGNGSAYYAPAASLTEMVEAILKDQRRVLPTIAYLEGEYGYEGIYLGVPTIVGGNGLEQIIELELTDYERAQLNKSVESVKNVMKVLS

This test covers variants of B1. The following applies: with mdh_bacsu mdh.
Consider S104P, for which the “effect of a mutation on the interaction” value was “increasing interaction”.
